Columns and labels:
[1] = biological target: EGF receptor (ErbB1) on HeLa 229 cells (UniProt P00533); experiment: cell-based or functional assay
[2] = biological target: ErbB1 receptor (EGF receptor) on HeLa cells (UniProt P00533); experiment: cell-based or functional assay

Chain of PEGylated betacellulin produced using the mPEG-SMB-20K reagent (P35070 other isoform, or with tags, fused parts or gaps limits assumed): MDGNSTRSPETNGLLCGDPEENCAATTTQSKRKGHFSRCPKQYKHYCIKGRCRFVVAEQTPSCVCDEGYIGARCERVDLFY
Chain of PEGylated betacellulin produced using the mPEG-ButyrALD-20K reagent (P35070 other isoform, or with tags, fused parts or gaps limits assumed): as above
Chain of Unreacted (SEC fraction of the PEGylation reactions, presumably unreacted betacellulin) (P35070 other isoform, or with tags, fused parts or gaps limits assumed): as above

For “PEGylated betacellulin produced using the mPEG-ButyrALD-20K reagent (from UniProt P35070 32-111) (ligand)”, the activity % (phospho-EGFR pY1068 ELISA, HeLa 229 cells) [1] was 58%, the activity % (phospho-EGFR pY1068 ELISA, HeLa 229 cells; SEC column S200) [1] was 55% and the betacellulin activity in the phospho-EGFR pY1068 ELISA on HeLa 229 cells ([2]; scale: % reduction against unreacted betacellulin) was less than 50.
“PEGylated betacellulin produced using the mPEG-SMB-20K reagent (from UniProt P35070 32-111) (ligand)” was tested, and the ELISA activity is equivalent to [BTC] nM (phospho-EGFR pY1068 ELISA, HeLa 229 cells; 40 nM submitted; SEC column S200) [1] was 14 nM, the activity % (phospho-EGFR pY1068 ELISA, HeLa 229 cells) [1] was 26% and the activity % (phospho-EGFR pY1068 ELISA, HeLa 229 cells; SEC column S200) [1] was 34%. The betacellulin activity in the phospho-EGFR pY1068 ELISA on HeLa 229 cells (fold lower than unreacted betacellulin) [2] was 3.
In the case of “Unreacted (SEC fraction of the PEGylation reactions, presumably unreacted betacellulin) (from UniProt P35070 32-111) (ligand)”, the ELISA activity is equivalent to [BTC] nM (phospho-EGFR pY1068 ELISA, HeLa 229 cells; 40 nM submitted; SEC column S70) [1] was 0 nM and the activity % (phospho-EGFR pY1068 ELISA, HeLa 229 cells) [1] was 0%.

Reference: US20110319324A1
